# Source: patent publication US20240270821A1, “GIP/GLP1/GCG TRI-RECEPTOR AGONISTS AND USES THEREOF” (priority 2023, published 2024)
# Positions count from the first letter of the chain named. Starred links: 1 amine or outer side, 2 acyl side, 3 side chain; linkers in the order of their positions; H or OH if unused. Non-standard residues stand in square brackets, D forms with d. Groups on a side chain read outwards from the residue. No end group written: not given here. *: point of attachment. C18 diacid = O=C(O)CCCCCCCCCCCCCCCCC(=O)*; γGlu = O=C(O)[C@H](CCC(=O)[*:2])N[*:1]; αMe4Pal = C[C@](N)(Cc1ccncc1)C(=O)O; 4Pal = N[C@@H](Cc1ccncc1)C(=O)O; αMeL = CC(C)C[C@](C)(N)C(=O)O; Orn = NCCC[C@H](N)C(=O)O; Aib = CC(C)(N)C(=O)O
# B1: Example 1043 (peptide)
# chain: YXQGTFTSDXSQXLDXKAQXAFIEXLIEGGPSSGAPPPSGSEE
# modifications: non-natural residues, C18 diacid-(γGlu)2 acyl on K, C-terminal amide; synthetic construct; SITE 2: note = 2-Aminoisobutyric Acid; SITE 10: note = 3-(4-Pyridyl)-L-alanine; SITE 13: note = alpha-methyl-leucine; SITE 16: note = L-ornithine; SITE 17: note = Lysine is chemically modified through conjugation of the epsilon-amino group of the Lysine side chain with (gamma-Gl)
# B2: Example 1036 (peptide)
# chain: B1 chain with X16K, X25Y, I27L, E28A
# modifications: synthetic construct; SITE 2: note = 2-Aminoisobutyric Acid; SITE 10: note = 3-(4-Pyridyl)-L-alanine; SITE 13: note = alpha-methyl-leucine; SITE 17: note = Lysine is chemically modified through conjugation of the epsilon-amino group of the Lysine side chain with (gamma-Glu)2-CO-(CH2)16-CO2H; SITE 20:
# B3: Example 1046 (peptide)
# chain: B1 chain with A21Q
# modifications: non-natural residues, C-terminal amide, acylated Lys with fatty diacid; synthetic construct; SITE 2: note = 2-Aminoisobutyric Acid; SITE 10: note = 3-(4-Pyridyl)-L-alanine; SITE 13: note = alpha-methyl-leucine; SITE 16: note = L-ornithine; SITE 17: note = Lysine is chemically modified through conjugation of the epsilon-amino group of the Lysine side chain with (gamma-Gl)
# B4: Example 1041 (peptide)
# chain: B1 chain
# modifications: Aib, 4Pal, Orn, Me4Pal, αMeY; acylated lysine; amide; synthetic construct; SITE 2: note = 2-Aminoisobutyric Acid; SITE 10: note = 3-(4-Pyridyl)-L-alanine; SITE 13: note = alpha-methyl-leucine; SITE 16: note = L-ornithine; SITE 17: note = Lysine is chemically modified through conjugation of the epsilon-amino group of the Lysine side chain with (2-[2-(2-
# B5: Example 1045 (peptide)
# chain: B1 chain with A21Q
# modifications: non-natural residues; lipidated Lys AEEA-γGlu-C18 diacid; C-term amide; synthetic construct; SITE 2: note = 2-Aminoisobutyric Acid; SITE 10: note = 3-(4-Pyridyl)-L-alanine; SITE 13: note = alpha-methyl-leucine; SITE 16: note = L-ornithine; SITE 17: note = Lysine is chemically modified through conjugation of the epsilon-amino group of the Lysine side chain with (2-[2-(2-
# B6: Example 1038 (peptide)
# chain: YXQGTFTSDFSQXLDXKAQXAFIEYLLEAGPSSGAPPPSGSEEE
# modifications: synthetic construct; SITE 2: note = 2-Aminoisobutyric Acid; SITE 13: note = alpha-methyl-leucine; SITE 16: note = L-ornithine; SITE 17: note = Lysine is chemically modified through conjugation of the epsilon-amino group of the Lysine side chain with (2-[2-(2-Amino-ethoxy)-ethoxy]-acetyl)-(gamma-Glu)
# B7: Example 1039 (peptide)
# chain: B6 chain
# modifications: not fully specified; synthetic construct; SITE 2: note = 2-Aminoisobutyric Acid; SITE 13: note = alpha-methyl-leucine; SITE 16: note = L-ornithine; SITE 17: note = Lysine is chemically modified through conjugation of the epsilon-amino group of the Lysine side chain with (gamma-Glu)2-CO-(CH2)16-CO2H; SITE 20: note = 2-Am
# B8: Example 1040 (peptide)
# chain: B6 chain with Y25X
# modifications: Aib, αMeL, Orn, Me4Pal; acylated K; C-terminal amide; synthetic construct; SITE 2: note = 2-Aminoisobutyric Acid; SITE 13: note = alpha-methyl-leucine; SITE 16: note = L-ornithine; SITE 17: note = Lysine is chemically modified through conjugation of the epsilon-amino group of the Lysine side chain with (gamma-Glu)2-CO-(CH2)16-CO2H; SITE 20: note = 2-Am
# B9: Example 1047 (peptide)
# chain: YXQGTFTSDFSXXLDKKAQXAFIEYLLEGGPSSGAPPPGGSEE
# modifications: non-natural residues, C-terminal amide, acylated Lys with fatty diacid; synthetic construct; SITE 2: note = 2-Aminoisobutyric Acid; SITE 12: note = L-ornithine; SITE 13: note = alpha-methyl-leucine; SITE 17: note = Lysine is chemically modified through conjugation of the epsilon-amino group of the Lysine side chain with (gamma-Glu)2-CO-(CH2)16-CO2H; SITE 20: note = 2-Am
# B10: Example 1048 (peptide)
# chain: B9 chain with K16X
# modifications: non-natural residues (Aib, Orn, αMeL); lipidated Lys; C-terminal amide; synthetic construct; SITE 2: note = 2-Aminoisobutyric Acid; SITE 12: note = L-ornithine; SITE 13: note = alpha-methyl-leucine; SITE 16: note = L-ornithine; SITE 17: note = Lysine is chemically modified through conjugation of the epsilon-amino group of the Lysine side chain with (gamma-Glu)2-CO-(CH2)
# B11: Example 6 (peptide)
# chain: YXQGTFTSDFSKXLDKKAQXAFIEYLLAGGPSSGEPPPSGG
# modifications: Aib, αMeL; Lys acylated; C-terminal amide; synthetic construct; SITE 2: note = 2-Aminoisobutyric Acid; SITE 13: note = alpha-methyl-leucine; SITE 17: note = Lysine is chemically modified through conjugation of the epsilon-amino group of the Lysine side chain with (2-[2-(2-Amino-ethoxy)-ethoxy]-acetyl)-(gamma-Glu)-CO-(CH2) 18-CO2H; SITE 20: n
# B12: Example 1025 (peptide)
# chain: YXQGTFTSDXSQXLDKKAQXAFIEYLIEAGPSSGAPPPSGSE
# modifications: synthetic construct; SITE 2: note = 2-Aminoisobutyric Acid; SITE 10: note = 3-(4-Pyridyl)-L-alanine; SITE 13: note = alpha-methyl-leucine; SITE 17: note = Lysine is chemically modified through conjugation of the epsilon-amino group of the Lysine side chain with (gamma-Glu)2-CO-(CH2)16-CO2H; SITE 20:
# Biological target: hGLP-1R (Homo sapiens, UniProt P43220)
# Sequence (P43220 24-463): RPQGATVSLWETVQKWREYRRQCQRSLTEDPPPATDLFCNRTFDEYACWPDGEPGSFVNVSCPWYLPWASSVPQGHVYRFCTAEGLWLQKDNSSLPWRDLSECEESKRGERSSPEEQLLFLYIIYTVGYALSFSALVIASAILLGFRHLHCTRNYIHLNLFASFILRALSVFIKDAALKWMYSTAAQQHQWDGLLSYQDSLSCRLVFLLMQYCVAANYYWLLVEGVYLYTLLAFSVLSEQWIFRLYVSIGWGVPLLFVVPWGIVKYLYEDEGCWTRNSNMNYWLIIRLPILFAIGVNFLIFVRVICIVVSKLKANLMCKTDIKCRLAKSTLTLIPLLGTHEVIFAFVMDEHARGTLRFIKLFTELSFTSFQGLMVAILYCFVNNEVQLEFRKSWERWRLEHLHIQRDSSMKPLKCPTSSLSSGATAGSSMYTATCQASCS
# Assay: cell-based or functional assay
Binder,"cAMP Rel EC50, nM (1% HSA) [nM]",Relative cAMP EC50 [nM],cAMP Rel EC50 (in the presence of 1% HSA) [nM]
B1,268,,
B2,1080,6.87,
B3,528,,
B4,316,,
B5,276,,
Y[Aib]QGTFTSD[4Pal]SQ[αMeL]LD[Orn]KK([Glu-γGlu-C18 diacid])AQ[αMe4Pal]AFIEYLIAGGPSSGAPPPSGSEE-NH2 [Example 1032],148,,
B6,349,1.45,
B7,413,1.65,
B8,322,,
B9,1960,16.2,
B10,1900,6.23,
B11,,1.95,446
B12,352,2.45,

# Biological target: T1, human GIP receptor (human) (UniProt P48546)
# T1 sequence (looked up): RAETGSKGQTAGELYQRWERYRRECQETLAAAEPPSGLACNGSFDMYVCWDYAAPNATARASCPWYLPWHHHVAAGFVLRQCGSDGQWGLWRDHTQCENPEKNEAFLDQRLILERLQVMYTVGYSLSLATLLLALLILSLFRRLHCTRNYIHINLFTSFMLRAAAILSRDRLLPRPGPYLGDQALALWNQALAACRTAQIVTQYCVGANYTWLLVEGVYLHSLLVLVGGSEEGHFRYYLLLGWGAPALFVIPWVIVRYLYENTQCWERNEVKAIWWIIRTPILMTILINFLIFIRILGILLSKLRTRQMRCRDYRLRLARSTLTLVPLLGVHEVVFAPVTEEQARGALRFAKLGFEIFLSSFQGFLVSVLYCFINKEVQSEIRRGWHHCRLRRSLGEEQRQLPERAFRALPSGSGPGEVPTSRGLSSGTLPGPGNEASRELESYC
# Assay: cell-based or functional assay
Binder,"cAMP Rel EC50, nM (1% HSA) [nM]",Relative cAMP EC50 [nM],cAMP Rel EC50 (in the presence of 1% HSA) [nM]
B1,44.9,,
B2,13,0.114,
B3,85,,
B4,75.7,,
B5,107,,
Y[Aib]QGTFTSD[4Pal]SQ[αMeL]LD[Orn]KK([Glu-γGlu-C18 diacid])AQ[αMe4Pal]AFIEYLIAGGPSSGAPPPSGSEE-NH2 [Example 1032],21.9,,
B6,29.8,0.134,
B7,26.8,0.118,
B8,20.8,,
B9,60.8,0.28,
B10,108,0.356,
B11,,0.232,46.6
B12,31.5,0.18,

# Biological target: human glucagon receptor (human) (UniProt P47871)
# Sequence (P47871 26-477): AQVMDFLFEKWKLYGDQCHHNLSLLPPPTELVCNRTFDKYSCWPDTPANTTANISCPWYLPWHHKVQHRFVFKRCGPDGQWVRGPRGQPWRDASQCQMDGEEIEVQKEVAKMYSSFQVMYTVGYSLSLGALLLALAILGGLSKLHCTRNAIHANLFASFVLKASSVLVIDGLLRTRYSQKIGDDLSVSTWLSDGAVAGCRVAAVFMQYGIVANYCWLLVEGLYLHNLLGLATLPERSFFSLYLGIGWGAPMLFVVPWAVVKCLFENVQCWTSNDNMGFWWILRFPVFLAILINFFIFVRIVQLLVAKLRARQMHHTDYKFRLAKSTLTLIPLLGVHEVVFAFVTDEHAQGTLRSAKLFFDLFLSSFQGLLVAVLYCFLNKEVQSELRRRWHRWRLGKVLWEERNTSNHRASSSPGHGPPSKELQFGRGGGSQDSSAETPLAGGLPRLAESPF
# Assay: cell-based or functional assay
Binder,"cAMP Rel EC50, nM (1% HSA) [nM]",Relative cAMP EC50 [nM],cAMP Rel EC50 (in the presence of 1% HSA) [nM]
B1,2240,,
B2,353,2.05,
B3,1680,,
B4,1720,,
B5,1540,,
Y[Aib]QGTFTSD[4Pal]SQ[αMeL]LD[Orn]KK([Glu-γGlu-C18 diacid])AQ[αMe4Pal]AFIEYLIAGGPSSGAPPPSGSEE-NH2 [Example 1032],900,,
B6,1300,5.93,
B7,2020,7.46,
B8,2020,,
B9,1510,8.18,
B10,1930,6.9,
B11,,6.89,1380
B12,625,3.22,
